From patent US9013690

Molecular target: Beta Amyloid 1-40 (human) (UniProt P05067)
Assay: fluorescence sandwich immunoassay on D2PA plate, 6E10 capture and anti-Aβ42 detection, Aβ40 as analyte

## anti-Aβ42 (biotinylated detection antibody of the Covance Aβ-42 ELISA kit)
  Cross-Reactivity: 0.06%
